According to patent US20090297520A1:
Where two headings read alike, the source gives them in different places. Ends that are not written are not given here.

Experiments:
Assay in all cases: cell-based or functional assay
human Kv1.3 (human) [1] = biological target: human Kv1.3 (human) (UniProt P22001)
human Kv1.1 (human) = human Kv1.1 (human) (UniProt Q09470)
human Kv1.3 (human) [2] = biological target: human Kv1.3 (human) (UniProt P22001); remark: listed apart in the source

Chain of human Kv1.1 (human) (Q09470 whole entry): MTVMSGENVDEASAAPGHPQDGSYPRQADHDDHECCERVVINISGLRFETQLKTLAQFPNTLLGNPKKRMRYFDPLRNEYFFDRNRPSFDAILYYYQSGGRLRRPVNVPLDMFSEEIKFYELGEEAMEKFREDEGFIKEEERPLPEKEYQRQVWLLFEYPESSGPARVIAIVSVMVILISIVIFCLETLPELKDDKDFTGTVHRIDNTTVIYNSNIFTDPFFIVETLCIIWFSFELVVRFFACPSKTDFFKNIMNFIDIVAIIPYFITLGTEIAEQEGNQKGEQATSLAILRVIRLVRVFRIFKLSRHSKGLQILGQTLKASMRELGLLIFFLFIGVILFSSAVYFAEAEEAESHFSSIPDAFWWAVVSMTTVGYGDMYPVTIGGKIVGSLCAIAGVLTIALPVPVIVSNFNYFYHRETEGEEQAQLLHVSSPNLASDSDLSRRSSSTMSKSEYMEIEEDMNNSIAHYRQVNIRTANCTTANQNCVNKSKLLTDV
Chain of human Kv1.3 (human) (P22001 whole entry): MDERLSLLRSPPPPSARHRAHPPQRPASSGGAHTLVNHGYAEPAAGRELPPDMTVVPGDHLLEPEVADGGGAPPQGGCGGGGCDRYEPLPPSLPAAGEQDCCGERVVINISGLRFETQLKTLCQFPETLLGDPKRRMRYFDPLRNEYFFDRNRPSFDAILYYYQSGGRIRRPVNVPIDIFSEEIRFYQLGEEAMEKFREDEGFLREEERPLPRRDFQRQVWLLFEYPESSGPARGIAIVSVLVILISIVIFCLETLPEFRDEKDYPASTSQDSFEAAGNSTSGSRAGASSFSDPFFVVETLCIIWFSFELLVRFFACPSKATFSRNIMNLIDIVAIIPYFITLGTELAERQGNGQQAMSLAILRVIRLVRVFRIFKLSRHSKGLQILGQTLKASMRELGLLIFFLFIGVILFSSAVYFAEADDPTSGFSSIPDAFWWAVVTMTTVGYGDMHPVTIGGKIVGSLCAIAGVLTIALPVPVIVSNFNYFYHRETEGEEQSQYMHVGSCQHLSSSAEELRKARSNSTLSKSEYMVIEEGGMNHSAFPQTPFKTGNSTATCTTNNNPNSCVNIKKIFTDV

## 20k PEG-OSK1[Ala29, 1Nal34] (peptide)
Human Kv1.3 (human) [1]
  WB/IFNg (IC50, nM), human whole blood: 0.081 nM
  WB/IL-2 (IC50, nM), human whole blood: 0.049 nM

## 20k PEG-ShK (peptide)
Human Kv1.3 (human) [1]
  WB/IFNg (IC50, nM), human whole blood: 0.065 nM
  WB/IL-2 (IC50, nM), human whole blood: 0.046 nM

## E. coli-derived Fc-L-OSK1 (Fc fusion)
Human Kv1.3 (human) [1]
  Kv1.3 IC50 by WCVC (nM), whole cell patch clamp on HEK293/Kv1.3 cells: 3.2 nM

## E. coli-derived Fc-L-ShK[1-35] (Fc fusion)
Human Kv1.3 (human) [1]
  Kv1.3 IC50 by WCVC (nM), whole cell patch clamp on HEK293/Kv1.3 cells: 1.4 nM

## E. coli-derived Fc-L-ShK[2-35] (Fc fusion)
Human Kv1.3 (human) [1]
  Kv1.3 IC50 by IWQ (nM), IonWorks planar patch clamp on CHO/Kv1.3 cells: 2.8 nM
  Kv1.3 IC50 by WCVC (nM), whole cell patch clamp on HEK293/Kv1.3 cells: 1.3 nM

## E. coli-derived ShK[2-35]-L-Fc (Fc fusion)
Human Kv1.3 (human) [1]
  Kv1.3 IC50 by IWQ (nM), IonWorks planar patch clamp on CHO/Kv1.3 cells: 4.9 nM

## E. coli-derived Shk[1-35]-L-Fc (Fc fusion)
Human Kv1.3 (human) [1]
  Kv1.3 IC50 by IWQ (nM), IonWorks planar patch clamp on CHO/Kv1.3 cells: 2.4 nM

## Fc-L5-ShK[2-35] (CHO-derived, bivalent dimeric) (Fc fusion)
Human Kv1.3 (human) [1]
  IC50, block of outward potassium current, whole cell patch clamp: 100 pM

## Fc-L10-OSK1 (Fc fusion)
Human Kv1.1 (human)
  hKv1.1: IC50 [pM], whole cell patch clamp: 41600 pM

## Fc-L10-ShK[2-35] (CHO-derived, bivalent dimeric) (Fc fusion)
Human Kv1.3 (human) [1]
  IC50, block of outward potassium current, whole cell patch clamp: 115 pM

## Fc-L25-ShK[2-35] (CHO-derived, bivalent dimeric) (Fc fusion)
Human Kv1.3 (human) [1]
  IC50, whole cell patch clamp on HEK293/Kv1.3 cells: 150 pM

## GGGGS-Osk1 (peptide)
Human Kv1.3 (human) [1]
  WB/IFNg (IC50, nM), human whole blood: 2.2 nM
  WB/IL-2 (IC50, nM), human whole blood: 1.36 nM

## OSK1 (synthetic Osk1 toxin peptide)
Human Kv1.3 (human) [1]
  IC50, block of outward potassium current, whole cell patch clamp: 39 pM

## OSK1-K16, D20 (peptide)
Human Kv1.3 (human) [1]
  WB/IFNg (IC50, nM), human whole blood: 1.32 nM
  WB/IL-2 (IC50, nM), human whole blood: 1.58 nM

## PEG-Fc-L10-OSK1, pool 2 (Fc fusion)
Human Kv1.3 (human) [1]
  IC50 Sustained (nM), pool 2: 0.332 nM

## PEG-Fc-L10-OSK1, pool 3 (Fc fusion)
Human Kv1.3 (human) [1]
  IC50 Sustained (nM), pool 3: 0.256 nM

## PEG-Fc-L10-SHK(2-35), pool 2 (Fc fusion)
Human Kv1.3 (human) [1]
  IC50 Sustained (nM), pool 2: 0.158 nM

## PEG-Fc-L10-SHK(2-35), pool 3 (Fc fusion)
Human Kv1.3 (human) [1]
  IC50 Sustained (nM), pool 3: 0.175 nM

## PEG-OSK1 (peptide)
Human Kv1.3 (human) [1]
  peak IC50, whole cell patch clamp: 1280 pM

## Synthetic OSK1 (peptide)
Human Kv1.3 (human) [1]
  hKv1.3: IC50 [pM], whole cell patch clamp: 39 pM
Human Kv1.1 (human)
  hKv1.1/hKv1.3 (ratio of IC50s, reference hKv1.3): 4
  hKv1.1: IC50 [pM], whole cell patch clamp: 160 pM

## native OSK1 (peptide)
Human Kv1.3 (human) [1]
  Kv1.3 (IC50, pM), whole cell patch clamp ePhys: 39 pM
  Kv1.3 Selectivity (=Kv1.1/Kv.3 IC50): 5 fold
Human Kv1.1 (human)
  Kv1.1 (IC50, pM), whole cell patch clamp ePhys: 202 pM

## SCIDTIPKSRCTAFQCKHSMKYRLSFCRKTCGTC (not fully specified; ends and bridges not checked) [ShK[2-35] (synthetic peptide analog)]
Human Kv1.3 (human) [2]
  IC50, block of outward potassium current, whole cell patch clamp: 49 pM

## RSCIDTIPKSRCTAFQCKHSMKYRLSFCRKTCGTC (not fully specified (N-terminus); ends and bridges not checked) [20K PEG-ShK[1-35]]
Human Kv1.3 (human) [2]
  peak IC50, whole cell patch clamp: 169 pM
